{
  "source": "patent US20250122242A1",
  "about": "“SELECTION SYSTEMS, PEPTIDES DETERMINED THEREWITH, AND METHODS OF USING SAME” (Wisconsin Alumni Research Foundation, priority 2023, published 2025)",
  "key": {"hIAPP-T7n": {"target": "hIAPP-T7n (UniProt P00573+P10997)", "sequence (P10997+P00573 fused)": "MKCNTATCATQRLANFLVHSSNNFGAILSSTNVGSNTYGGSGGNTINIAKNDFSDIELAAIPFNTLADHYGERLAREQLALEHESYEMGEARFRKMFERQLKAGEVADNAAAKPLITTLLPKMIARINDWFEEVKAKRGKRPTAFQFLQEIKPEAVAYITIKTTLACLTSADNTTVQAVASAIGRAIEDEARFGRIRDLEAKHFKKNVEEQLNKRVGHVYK", "settings": "for Percent total reads (positive selection) / Rank (positive selection): positive selection on hIAPP, high-throughput sequencing; for Rank (positive selection): top enriched sequences", "text": "Next, we examined if our system could discover inhibitors of other disease-associated APPs. We targeted human islet amyloid polypeptide (hIAPP), which forms amyloid deposits in patients with type-2 diabetes that are hypothesized to contribute to […] dysfunction.^40 To create a selection for hIAPP aggregation inhibitors, we simply cloned hIAPP in place of Aβ42 in our selection circuit (FIG. 2B). We used an SP-encoded CZ6 SICLOPPS library (Z=NDT codon encoded amino acid: R, N, D, C, G, H, I, L, F, S, Y, or V) (˜3×10^6 total sequences). This codon set was chosen to reduce the theoretical library size and facilitate library cloning. The library (total of ˜5×10^6 transformants) was cloned on a SP obtained from an additional 250 hours of PACE using a more stringent selection (FIGS. 10A-10D).\nWe performed five rounds of selection, diluting the SP pool by ten-fold each round (FIG. 4A). […] To verify that we selected phage with higher activity, we measured the propagation of the SP from each round on hIAPP selection cells, normalizing input phage titers to […] to enable head-to-head comparison between phage pools.\n(§1) Single colonies of host cells transformed with the appropriate selection plasmids were used to make overnight cultures in 2×YT with maintenance antibiotics. The overnight culture was diluted (1:100) into 4-5 mL DRM with maintenance antibiotics and incubated at 37° C. with shaking until the OD600 of the culture reached ˜0.5, upon which the expanded phage library was added at a titer of 1×10^6 pfu/mL. The culture was incubated at 37° C. with shaking overnight (13-18 h). The next day, the culture was centrifuged at 8,000 rcf for 2 min to obtain the supernatant containing phage. The collected phage was diluted into fresh host cell cultures (10 to 1,000-fold) for the next round of selection, while the rest was stored at 4° C. for downstream analysis. This process was repeated until a significant increase in phage propagation was observed compared with the parent library. Both positive and negative selection rounds were performed using this procedure.\n(§2) Sample preparation. Phage stocks collected from the final rounds of library selection were first amplified using LY0145 and LY0146. The PCR product was purified, and adapters added using LY0147 and LY0148. The resulting PCR product was purified and barcoded through a final PCR using index primers to add unique indices for shared Illumina NovaSeq sequencing. The final PCR product was purified, and the concentration measured by Nanodrop. Further sample quality control was performed by the University of Wisconsin-Madison Biotechnology Center (UWBC).\n(§3) High-throughput sequencing and data analysis. High-throughput sequencing was performed by UWBC using a shared sequencing service on the NovaSeq 6000 platform. Sequencing reads were demultiplexed by UWBC and analyzed using custom-written Python scripts."}, "Aβ42-T7n": {"target": "Aβ42-T7n (UniProt P00573+P05067)", "sequence (P05067+P00573 fused)": "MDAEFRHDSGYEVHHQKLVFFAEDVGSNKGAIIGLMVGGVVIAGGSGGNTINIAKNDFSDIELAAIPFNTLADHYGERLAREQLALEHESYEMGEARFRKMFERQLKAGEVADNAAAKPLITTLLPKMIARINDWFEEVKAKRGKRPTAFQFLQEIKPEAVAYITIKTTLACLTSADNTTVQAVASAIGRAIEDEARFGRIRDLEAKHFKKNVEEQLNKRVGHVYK", "settings": "for Fold enrichment in negative vs. positive selection: percent reads negative vs. positive selection; for Percent total reads (negative selection) / Rank (negative selection): subsequent negative selection against Aβ42, high-throughput sequencing", "text": "To create a negative selection, we placed gIII-neg, a dominant-negative form of gIII,^44 under PT7 in our selection circuit. Inhibition of a non-target APP (ex. Aβ42) triggers pIII-neg expression and poisons phage proliferation. A second plasmid produces small amounts of pIII from the phage shock promoter (FIG. 16A). All SPs infecting cells encoding this negative selection receive sufficient pIII to propagate. However, SP that carry a promiscuous or false positive cyclic peptide will also produce pIII-neg and generate non-infectious progeny (FIGS. 16B and 16C). We subjected the hIAPP round 5 phage population to four rounds of negative selection, diluting the phage by 100-fold each round (FIG. 5B).\nas §1, §2, §3"}, "hIAPP": {"target": "T1, hIAPP (Homo sapiens, UniProt P10997)", "T1 construct": "A 1 mg portion of amylin trifluoroacetate salt (Bachem) was purchased as lyophilized solid in a vial; purchased Bachem", "T1 sequence (P10997 34-70 limits assumed)": "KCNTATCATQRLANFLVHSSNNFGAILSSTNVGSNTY", "experiment": "TEM analysis of hIAPP fibril formation", "type": "biochemical", "settings": "10 μM hIAPP, 40 μM cyclic peptide; for hIAPP fibril formation / aggregation onset by TEM: 2 h; for morphology of hIAPP fibrils by TEM: longer incubation (14 h)", "description": "Transmission electron microscopy (TEM) was performed at the University of Wisconsin School of Medicine and Public Health Electron Microscopy facility. hIAPP and cyclic peptide were dissolved in 25 mM sodium phosphate buffer (pH 6.8 with 0.4% DMSO) to achieve a molar ratio of 1:4 at concentrations of hIAPP=10 μM and cyclic peptide=40 μM. The sample was incubated quiescently at 32° C. before TEM analysis. 2 μL of the sample was placed onto Formvar-coated copper grids and the excess liquid was blotted away. 2 μL of diluted Nano-W solution was then added to stain the grids and the excess liquid was blotted away. The TEM analysis was performed on Philips CM120 at 80 kV and digital images were obtained with an AMT BioSprint12 camera."}},
  "data": [
    {"substance": "CHVVGVI (cyclised; Circular) [cyclo-CHVVGVI]", "values": [
      {"measurement": "Percent total reads (positive selection)", "setting": "hIAPP-T7n", "value": 94.40, "unit": "%"},
      {"measurement": "share of sequencing reads in SP pool", "setting": "hIAPP-T7n; round 5 of hIAPP positive selection, deep sequencing", "value": "~95", "unit": "%"},
      {"measurement": "Rank (positive selection)", "setting": "hIAPP-T7n", "value": 1},
      {"measurement": "Fold enrichment in negative vs. positive selection", "setting": "Aβ42-T7n", "value": 0.003},
      {"measurement": "Percent total reads (negative selection)", "setting": "Aβ42-T7n", "value": 0.29, "unit": "%"},
      {"measurement": "Rank (negative selection)", "setting": "Aβ42-T7n", "value": 20},
      {"measurement": "hIAPP fibril formation / aggregation onset by TEM", "setting": "hIAPP", "value": "no fibrils are observed"},
      {"measurement": "morphology of hIAPP fibrils by TEM", "setting": "hIAPP", "value": "No gross differences in morphology"}
    ]},
    {"substance": "CRCVFSG (cyclised; Circular) [cyclo-CRCVFSG]", "values": [
      {"measurement": "Percent total reads (positive selection)", "setting": "hIAPP-T7n", "value": 0.04, "unit": "%"},
      {"measurement": "Rank (positive selection)", "setting": "hIAPP-T7n", "value": 20},
      {"measurement": "Fold enrichment in negative vs. positive selection", "setting": "Aβ42-T7n", "value": 701.46},
      {"measurement": "Percent total reads (negative selection)", "setting": "Aβ42-T7n", "value": 24.55, "unit": "%"},
      {"measurement": "Rank (negative selection)", "setting": "Aβ42-T7n", "value": 2},
      {"measurement": "hIAPP fibril formation / aggregation onset by TEM", "setting": "hIAPP", "value": "delay hNAPP aggregation"},
      {"measurement": "morphology of hIAPP fibrils by TEM", "setting": "hIAPP", "value": "do not change the overall appearance"}
    ]},
    {"substance": "CDLGVFR (cyclised; Circular) [cyclo-CDLGVFR]", "values": [
      {"measurement": "Percent total reads (positive selection)", "setting": "hIAPP-T7n", "value": 0.08, "unit": "%"},
      {"measurement": "Rank (positive selection)", "setting": "hIAPP-T7n", "value": 14},
      {"measurement": "Fold enrichment in negative vs. positive selection", "setting": "Aβ42-T7n", "value": 410.79},
      {"measurement": "Percent total reads (negative selection)", "setting": "Aβ42-T7n", "value": 31.22, "unit": "%"},
      {"measurement": "Rank (negative selection)", "setting": "Aβ42-T7n", "value": 1},
      {"measurement": "hIAPP fibril formation / aggregation onset by TEM", "setting": "hIAPP", "value": "delay hNAPP aggregation"},
      {"measurement": "morphology of hIAPP fibrils by TEM", "setting": "hIAPP", "value": "do not change the overall appearance"}
    ]}
  ]
}
